In US20170165373A1 (Amgen, published 2017):
Where two headings read alike, the source gives them in different places.

Assays:
[1] = target: T1, rhuBCMA fusion protein (6xHis::Sumo::huBCMA(aa 5-51)::GGS::G3::Avi) (human); assay: size exclusion chromatography (S200 column, PBS, UV trace), 500 ug antibody incubated with 500 ug sumoBCMA
T1 construct: Monomeric tagged fusion; the entry holds the tags, Sumo and the BCMA part; also called Sumo-BCMA; SumoBCMA
T1 chain: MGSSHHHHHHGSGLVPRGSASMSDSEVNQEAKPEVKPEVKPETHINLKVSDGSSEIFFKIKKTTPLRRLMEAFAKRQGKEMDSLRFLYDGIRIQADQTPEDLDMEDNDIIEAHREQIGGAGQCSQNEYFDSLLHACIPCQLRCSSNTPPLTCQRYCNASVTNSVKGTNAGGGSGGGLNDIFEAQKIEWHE

[2] = target: T2, human BCMA (huBCMA), full length, on cells (human, UniProt Q02223 1-184); assay: FACS equilibrium titration on 293T cells transiently transfected with human BCMA (relative FACS affinity)
T2 construct: also called native huBCMA; B-cell maturation antigen
T2 chain: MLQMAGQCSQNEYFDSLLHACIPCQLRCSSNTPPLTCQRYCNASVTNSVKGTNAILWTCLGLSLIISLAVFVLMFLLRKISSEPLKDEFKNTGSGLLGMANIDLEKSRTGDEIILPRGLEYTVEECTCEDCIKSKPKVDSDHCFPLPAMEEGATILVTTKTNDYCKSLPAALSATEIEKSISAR

[3] = target: T3, TACI, full length, on transiently transfected cells (human, UniProt O14836 1-293); assay: FACS on cells transiently transfected with the full-length receptor; positive if MFI is two times the negative control
T3 construct: whole, on cells; also called huTACI
T3 sequence (looked up): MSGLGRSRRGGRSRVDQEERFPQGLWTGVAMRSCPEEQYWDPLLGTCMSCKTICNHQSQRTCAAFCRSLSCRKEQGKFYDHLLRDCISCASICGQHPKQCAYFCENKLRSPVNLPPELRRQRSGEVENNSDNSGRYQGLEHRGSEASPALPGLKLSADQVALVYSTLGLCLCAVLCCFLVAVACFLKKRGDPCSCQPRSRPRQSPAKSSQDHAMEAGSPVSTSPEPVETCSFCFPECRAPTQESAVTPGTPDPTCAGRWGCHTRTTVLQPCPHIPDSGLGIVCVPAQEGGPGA

[4] = target: T4, BAFF-R, full length, on transiently transfected cells (human, UniProt Q96RJ3 1-184); assay: as above
T4 construct: whole, on cells; also called huBAFF-R
T4 sequence (looked up): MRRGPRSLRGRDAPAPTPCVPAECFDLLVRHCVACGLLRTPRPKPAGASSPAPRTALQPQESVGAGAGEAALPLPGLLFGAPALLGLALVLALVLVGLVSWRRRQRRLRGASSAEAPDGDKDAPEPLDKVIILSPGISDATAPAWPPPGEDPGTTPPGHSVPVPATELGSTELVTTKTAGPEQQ

[5] = target: T5, recombinant soluble human BCMA (Biacore analyte of Example 2) (human, UniProt Q02223 1-54); assay: Biacore 3000 SPR, antibody captured on anti-human IgG, rhu BCMA as analyte, 25 C
T5 construct: also called rhu BCMA; rsol.hu BCMA
T5 sequence: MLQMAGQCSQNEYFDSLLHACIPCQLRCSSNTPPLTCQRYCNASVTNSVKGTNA

[6] = target: T6, clipped form of the rhuBCMA fusion protein, SEQ ID NO:355 (human); assay: LC/MS (ESI-TOF, reduced sample) of the SEC-isolated 2A1 + SumoBCMA sample
T6 chain: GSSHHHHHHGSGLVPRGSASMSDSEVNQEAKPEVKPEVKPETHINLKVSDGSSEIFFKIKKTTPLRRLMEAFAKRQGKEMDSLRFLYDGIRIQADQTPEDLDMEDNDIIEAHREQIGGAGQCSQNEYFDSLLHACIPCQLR

[7] = target: T7, clipped form of the rhuBCMA fusion protein, SEQ ID NO:354 (human); assay: as above
T7 construct: also called Peak A
T7 chain: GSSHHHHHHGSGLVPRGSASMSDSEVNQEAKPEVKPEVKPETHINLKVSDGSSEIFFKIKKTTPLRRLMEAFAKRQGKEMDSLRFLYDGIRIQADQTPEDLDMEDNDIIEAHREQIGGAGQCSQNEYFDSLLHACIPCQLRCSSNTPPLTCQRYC

[8] = target: T8, clipped form of the rhuBCMA fusion protein, SEQ ID NO:356 (human); assay: as above
T8 chain: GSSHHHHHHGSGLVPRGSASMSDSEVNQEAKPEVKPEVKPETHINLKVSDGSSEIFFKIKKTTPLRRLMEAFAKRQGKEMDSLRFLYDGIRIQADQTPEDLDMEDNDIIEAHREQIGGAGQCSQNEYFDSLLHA

[9] = target: T9, clipped form of the rhuBCMA fusion protein, SEQ ID NO:357 (human); assay: as above
T9 chain: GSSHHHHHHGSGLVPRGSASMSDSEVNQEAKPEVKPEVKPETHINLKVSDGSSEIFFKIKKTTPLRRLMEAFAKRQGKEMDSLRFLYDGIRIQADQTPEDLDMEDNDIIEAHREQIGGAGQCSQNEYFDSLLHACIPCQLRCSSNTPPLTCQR

[10] = target: T10, cynomolgus BCMA, on transiently transfected 293T cells (cynomolgus (Macaca fascicularis), UniProt Q02223 1-184 (human entry)); assay: FACS equilibrium titration on 293T cells transiently transfected with cynomolgus BCMA (relative FACS affinity)
T10 construct: also called cyno BCMA
T10 sequence (Q02223 other isoform, or with tags, fused parts or gaps): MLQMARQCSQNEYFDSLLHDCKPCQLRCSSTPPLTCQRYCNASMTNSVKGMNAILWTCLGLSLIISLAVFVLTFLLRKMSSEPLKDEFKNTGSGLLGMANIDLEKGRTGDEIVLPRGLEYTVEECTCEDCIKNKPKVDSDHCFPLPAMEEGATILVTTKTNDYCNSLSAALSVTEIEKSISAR

[11] = target: T2, human BCMA (huBCMA), full length, on …; assay: FACS, H929 cells
[12] = target: T2, human BCMA (huBCMA), full length, on …; assay: FACS, H929 cells
[13] = target: T2, human BCMA (huBCMA), full length, on …; assay: FACS, H929 cells
[14] = target: T2, human BCMA (huBCMA), full length, on …; assay: cell-based or functional assay
[15] = target: T2, human BCMA (huBCMA), full length, on …; assay: FACS on H929 myeloma cells
[16] = target: T2, human BCMA (huBCMA), full length, on …; assay: FACS, H929 cells
[17] = target: T2, human BCMA (huBCMA), full length, on …; assay: FACS on H929 cells, native BCMA, relative binding, indirect
[18] = target: T11, rrat BCMA fusion protein (GS::6xHis::Sumo::ratBCMA(aa 2-49)::GGS::G3::Avi) (rat); assay: Biacore T200 SPR, antibody captured on anti-human IgG, rBCMA fusion as analyte, 25 C
T11 chain: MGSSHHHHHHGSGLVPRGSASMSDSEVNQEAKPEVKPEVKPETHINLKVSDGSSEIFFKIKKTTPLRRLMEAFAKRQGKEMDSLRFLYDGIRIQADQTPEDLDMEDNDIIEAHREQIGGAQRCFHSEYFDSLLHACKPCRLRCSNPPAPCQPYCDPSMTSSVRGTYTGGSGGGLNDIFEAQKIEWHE

[19] = target: T1, rhuBCMA fusion protein …; assay: Biacore T200 SPR, antibody captured on anti-human IgG, rBCMA fusion as analyte, 25 C, 1:1 model
[20] = target: T5, recombinant soluble human BCMA (Biacore …); assay: Biacore, recombinant soluble human BCMA; measured on parental 2A1; patent says 2A1CV5 binds identically
[21] = target: T5, recombinant soluble human BCMA (Biacore …); assay: Biacore 3000 SPR, antibody captured on anti-human IgG, rhu BCMA as analyte, steady state fit to a 1:1 isotherm

B1: 2A1 (parental fully human anti-huBCMA monoclonal antibody) (antibody, human IgG1, lambda, V domains shown)
VH: EVQLVESGGGLVKPGRSLRLSCTASGFTFGDYALSWFRQAPGKGLEWVGVSRSKAYGGTTDYAASVKGRFTISRDDSKSFAYLQMNSLKTEDTAVYYCCSSGYSSGWTPFDYWGQGTLVTVSS
VL: not shown
notes: also called Ab-5; Ab-18
binding result [1]: binds | Kd [2]: 1.1 nM | binding result [3]: no binding | binding result [4]: no binding | Kd [5]: 0.027 nM | binding result [6]: binds | binding result [7]: binds | binding result [8]: binds | binding result [9]: binds | Kd [10]: 0.905 nM | EC50 (read off the curve) [11]: ~0.1 µg/mL | EC50 (read off the curve) [12]: ~0.3 µg/mL | EC50 (read off the curve) [13]: ~0.2 µg/mL | ADCC EC50, calcein-AM labelled H929 target cells [14]: 0.011 µg/mL

B2: 2A1 Covariance 19 (2A1_K14Q + R17G + T24A + G32S + F44V + G56S + D84N + F88T + T98A + C107A + S108K; 2A1_E144K VL) (antibody, human IgG1, lambda, V domains shown)
VH: EVQLVESGGGLVQPGGSLRLSCAASGFTFSDYALSWVRQAPGKGLEWVSVSRSKAYGGTTDYAASVKGRFTISRDNSKSTAYLQMNSLKAEDTAVYYCAKSGYSSGWTPFDYWGQGTLVTVSS
VL: not shown
notes: also called Ab-37
binding result [15]: binds

B3: 2A1CV4 (antibody, human IgG1, lambda, V domains shown)
VH: EVQLVESGGGLVKPGGSLRLSCAASGFTFGDYALSWFRQAPGKGLEWVGVSRSKAYGGTTDYAASVKGRFTISRDDSKSFAYLQMNSLKTEDTAVYYCASSGYSSGWTPFDYWGQGTLVTVSS
VL: not shown
notes: IgG1 covariance mutein of 2A1; also called Ab-38; P61055.3
binding result [16]: binds

B4: Ab-1 (2A1CV5) (antibody, human IgG1, lambda, V domains shown)
VH: EVQLVESGGGLVKPGGSLRLSCAASGFTFGDYALSWFRQAPGKGLEWVGVSRSKAYGGTTDYAASVKGRFTISRDDSKSTAYLQMNSLKTEDTAVYYCASSGYSSGWTPFDYWGQGTLVTVSS
VL: not shown
EC50 [17]: 1.2 nM | Kd [18]: > 10 nM | Kd [19]: 0.155 nM | Kd [20]: 0.027 nM

B5: 1E1 (fully human anti-huBCMA monoclonal antibody) (antibody, IgG1, V domains shown)
VH: QVQLVQSGAEVKKPGASVKVSCKASGYTFTGHYIHWVRQAPGQGLEWMGWIYPNSGGTNYAQKFQGRVTMTRDTSISTAYMELSRLRSDDSAVYYCAREGMVTGDYYYYRMDVWGQGTTVIVSS
VL: QPVLTQPPSASASLGASVTLTCSLSSGYSNYKVDWYQQRPGKGPRFVMRVGIGGIVGSKGDGIPDRFSVLGSGLNRYLTIKNIQEEDESDFHCGADHGSGNNFVYVFGTGTKVTVLG
notes: Recombinantly cloned as IgG1; also called Ab-4
Kd [2]: 2.8 nM | binding result [3]: no binding | binding result [4]: no binding | Kd [5]: 0.113 nM | Kd [10]: > 100 nM | ADCC EC50, calcein-AM labelled H929 target cells [14]: 0.076 µg/mL

B6: 11F12 (fully human anti-huBCMA monoclonal antibody) (antibody, V domains shown)
VH: QVQLVESGGGVVQPGRSLRLSCAASGFTFSSYGLHWVRQAPGKGLEWVALISYDGSNKYYADSVKGRFTISRDNSKNTLYLQMNSLRAEDTAVYYCWYSSSWTPLDYWGQGTLVTVSS
VL: DIQMTQSPSSLSASVGDRVTITCRASQGIRNDLGWYQQKPGKAPKRLIYAASSLQSGVPSRFSGSGSGTEFTLTISSLQPEDFATYYCLQYYSYPLTFGGGTKVEIKR
notes: also called Ab-6; 11F12_LC#1
Kd [21]: 36.1 nM
